T1: human MCSP(D3 domain)-avi-his (human, UniProt Q6UVK1 1587-2221, limits assumed)
T1 construct: domain: D3 domain; also called hu-MCSP(D3 domain)-avi-his
T1 sequence (looked up): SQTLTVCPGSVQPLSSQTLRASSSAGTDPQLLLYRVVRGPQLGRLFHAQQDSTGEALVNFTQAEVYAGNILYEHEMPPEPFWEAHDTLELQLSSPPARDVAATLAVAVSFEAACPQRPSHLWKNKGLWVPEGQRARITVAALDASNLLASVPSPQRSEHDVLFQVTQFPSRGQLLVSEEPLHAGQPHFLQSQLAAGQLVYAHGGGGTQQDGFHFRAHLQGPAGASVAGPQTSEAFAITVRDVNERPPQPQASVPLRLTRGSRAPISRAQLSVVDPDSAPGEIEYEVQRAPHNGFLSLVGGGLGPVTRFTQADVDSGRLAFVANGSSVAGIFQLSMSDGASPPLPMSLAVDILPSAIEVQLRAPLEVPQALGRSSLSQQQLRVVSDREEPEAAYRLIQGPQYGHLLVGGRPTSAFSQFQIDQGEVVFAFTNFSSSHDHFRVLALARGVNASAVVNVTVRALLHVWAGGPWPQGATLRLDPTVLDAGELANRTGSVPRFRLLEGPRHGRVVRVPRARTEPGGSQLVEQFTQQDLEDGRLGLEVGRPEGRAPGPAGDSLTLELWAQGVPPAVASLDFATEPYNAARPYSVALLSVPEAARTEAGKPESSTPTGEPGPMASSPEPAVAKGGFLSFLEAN


Columns and labels:
[1] = biological target: T1, human MCSP(D3 domain)-avi-his; test: ratio of ProteOn IgG KD against parental M4-3/ML2 IgG
Description: (§1) Briefly, carboxymethylated dextran biosensor chips (CM5, GE Healthcare) were activated with N-ethyl-N′-(3-dimethylaminopropyl)-carbodiimide hydrochloride (EDC) and N-hydroxysuccinimide (NHS) according to the supplier's instructions. Anti-human F(ab′)2 fragment specific capture antibody was diluted with 10 mM sodium acetate, pH 5.0 at 50 μg/ml before injection at a flow rate of 10 μl/minute to achieve approximately up to 10.000 response units (RU) of coupled capture antibody. Following the injection of the capture antibody, 1 M ethanolamine is injected to block unreacted groups. For kinetics measurements, Fabs from bacterial supernatant or purified Fabs were injected at a flow rate of 10 ul/minute for 300 s and a dissociation of 300 s for capture baseline stabilization. Capture levels were in the range of 100-500 RU. […] The surface of the sensorchip was regenerated by injection of glycine pH 1.5 for 30 s at 90 ul/min followed by injection of NaOH for 20 s at the same flow rate. Association rates (kon) and dissociation rates (koff) were calculated using a simple one-to-one Langmuir binding model (ProteOn XPR36 Evaluation Software or Scrubber software (BioLogic)) by simultaneously fitting the association and dissociation sensorgrams. The equilibrium dissociation constant (KD) was calculated as the ratio koff/kon.
(§2) Method exactly as described for the Fab fragments, just purified IgG from mammalian production were used.

cynomolgus MCSP D3 = biological target: T2, cynomolgus MCSP D3 (cynomolgus); test: as above
T2 construct: domain: D3; also called Cyno MCSP; cynomolgus homologue
Description: as §1, §2

Row | fold increase over parent (IgG KD, comparative binding affinity) [1] | fold increase over parent (IgG KD, comparative binding affinity) (cynomolgus MCSP D3) | Binder
1 | 2.5 fold | 2 fold | M4-3(A7)/ML2 IgG (antibody, V domains shown, Human IgG1 format) VH: QVQLQESGPGLVKPSQTLSLTCTVSGGSITDGYYWNWIRQHPGKGLEWIGYITFDGRNNYNPSLKSRVTISRDTSKNQFSLKLSSVTAADTAVYYCADFDYWGQGTLVTVSS VL: DIQMTQSPSSLSASVGDRVTITCRASQGIRNYLNWYQQKPGKAPKLLIYYTSSLHSGVPSRFSGSGSGTDFTLTISSLQPEDFATYYCQQYSKLPWTFGQGTKVEIK
2 | 28.6 fold | 10 fold | M4-3(A7)/ML2(C5) IgG (antibody, V domains shown, Human IgG1 format) VH: QVQLQESGPGLVKPSQTLSLTCTVSGGSITDGYYWNWIRQHPGKGLEWIGYITFDGRNNYNPSLKSRVTISRDTSKNQFSLKLSSVTAADTAVYYCADFDYWGQGTLVTVSS VL: DIQMTQSPSSLSASVGDRVTITCRASRGIREYLNWYQQKPGKAPKLLIYYTGSLHSGVPSRFSGSGSGTDFTLTISSLQPEDFATYYCQQYSELPWTFGQGTKVEIK
3 | 6.7 fold | 2.9 fold | M4-3(A7)/ML2(E10) IgG (antibody, V domains shown, Human IgG1 format) VH: QVQLQESGPGLVKPSQTLSLTCTVSGGSITDGYYWNWIRQHPGKGLEWIGYITFDGRNNYNPSLKSRVTISRDTSKNQFSLKLSSVTAADTAVYYCADFDYWGQGTLVTVSS VL: DIQMTQSPSSLSASVGDRVTITCRASYGIRGYLNWYQQKPGKAPKLLIYYTSSLHSGVPSRFSGSGSGTDFTLTISSLQPEDFATYHCQQYSKLPWTFGQGTKVEIK
4 | 28.6 fold | 10 fold | M4-3(A7)/ML2(G3) IgG (antibody, V domains shown, Human IgG1 format) VH: QVQLQESGPGLVKPSQTLSLTCTVSGGSITDGYYWNWIRQHPGKGLEWIGYITFDGRNNYNPSLKSRVTISRDTSKNQFSLKLSSVTAADTAVYYCADFDYWGQGTLVTVSS VL: DIQMTQSPSSLSASVGDRVTITCRASQGIRNYLNWYQQKPGKAPKLLIYYTSSLHSGVPSRFSGSGSGTDYTLTISSLQPEDFATYYCQQYSALPWTFGQGTKVEIK
5 | 4 fold | 2.9 fold | M4-3(B7)/ML2 IgG (antibody, V domains shown, Human IgG1 format) VH: QVQLQESGPGLVKPSQTLSLTCTVSGGSITSGYYWNWIRQHPGKGLEWIGYITFDGINNYNPSLKSRVTISRDTSKNQFSLKLSSVTAADTAVYYCADFDYWGQGTLVTVSS VL: DIQMTQSPSSLSASVGDRVTITCRASQGIRNYLNWYQQKPGKAPKLLIYYTSSLHSGVPSRFSGSGSGTDFTLTISSLQPEDFATYYCQQYSKLPWTFGQGTKVEIK
6 | 2.2 fold | 2 fold | M4-3(B8)/ML2 IgG (antibody, V domains shown, Human IgG1 format) VH: QVQLQESGPGLVKPSQTLSLTCTVSGGSITSGYYWNWIRQHPGKGLEWIGYITFDGRNNYNPSLKSRVTISRDTSKNQFSLKLSSVTAADTAVYYCADFDYWGQGTLVTVSS VL: DIQMTQSPSSLSASVGDRVTITCRASQGIRNYLNWYQQKPGKAPKLLIYYTSSLHSGVPSRFSGSGSGTDFTLTISSLQPEDFATYYCQQYSKLPWTFGQGTKVEIK
7 | 2.2 fold | 2.5 fold | M4-3(C1)/ML2 IgG (antibody, V domains shown, Human IgG1 format) VH: QVQLQESGPGLVKPSQTLSLTCTVSGGSITSGYYWNWIRQHPGKGLEWIGYITFDGSNNYNPSLKSRVTISRDTSKNQFSLKLSSVTAADTAVYYCADFDYWGQGTLVTVSS VL: DIQMTQSPSSLSASVGDRVTITCRASQGIRNYLNWYQQKPGKAPKLLIYYTSSLHSGVPSRFSGSGSGTDFTLTISSLQPEDFATYYCQQYSKLPWTFGQGTKVEIK
8 | 10 fold | 6.7 fold | M4-3(C1)/ML2(C5) IgG (antibody, V domains shown, Human IgG1 format) VH: QVQLQESGPGLVKPSQTLSLTCTVSGGSITSGYYWNWIRQHPGKGLEWIGYITFDGSNNYNPSLKSRVTISRDTSKNQFSLKLSSVTAADTAVYYCADFDYWGQGTLVTVSS VL: DIQMTQSPSSLSASVGDRVTITCRASRGIREYLNWYQQKPGKAPKLLIYYTGSLHSGVPSRFSGSGSGTDFTLTISSLQPEDFATYYCQQYSELPWTFGQGTKVEIK
9 | 4 fold | 3.3 fold | M4-3(C1)/ML2(E10) IgG (antibody, V domains shown, Human IgG1 format) VH: QVQLQESGPGLVKPSQTLSLTCTVSGGSITSGYYWNWIRQHPGKGLEWIGYITFDGSNNYNPSLKSRVTISRDTSKNQFSLKLSSVTAADTAVYYCADFDYWGQGTLVTVSS VL: DIQMTQSPSSLSASVGDRVTITCRASYGIRGYLNWYQQKPGKAPKLLIYYTSSLHSGVPSRFSGSGSGTDFTLTISSLQPEDFATYHCQQYSKLPWTFGQGTKVEIK
10 | 5 fold | 2 fold | M4-3(D6)/ML2 IgG (antibody, V domains shown, Human IgG1 format) VH: QVQLQESGPGLVKPSQTLSLTCTVSGGSITSGYYWNWIRQHPGKGLEWIGYITFDGKNNYNPSLKSRVTISRDTSKNQFSLKLSSVTAADTAVYYCADFDYWGQGTLVTVSS VL: DIQMTQSPSSLSASVGDRVTITCRASQGIRNYLNWYQQKPGKAPKLLIYYTSSLHSGVPSRFSGSGSGTDFTLTISSLQPEDFATYYCQQYSKLPWTFGQGTKVEIK
11 | 5 fold | 2 fold | M4-3/ML2 (C5) IgG (antibody, V domains shown, Human IgG1 format) VH: QVQLQESGPGLVKPSQTLSLTCTVSGGSITSGYYWNWIRQHPGKGLEWIGYITYDGSNNYNPSLKSRVTISRDTSKNQFSLKLSSVTAADTAVYYCADFDYWGQGTLVTVSS VL: DIQMTQSPSSLSASVGDRVTITCRASRGIREYLNWYQQKPGKAPKLLIYYTGSLHSGVPSRFSGSGSGTDFTLTISSLQPEDFATYYCQQYSELPWTFGQGTKVEIK
12 | 2.9 fold | 2 fold | M4-3/ML2 (C5/G3) IgG (antibody, V domains shown, Human IgG1 format; also called MCSP ML2(C5-G3)) VH: QVQLQESGPGLVKPSQTLSLTCTVSGGSITSGYYWNWIRQHPGKGLEWIGYITYDGSNNYNPSLKSRVTISRDTSKNQFSLKLSSVTAADTAVYYCADFDYWGQGTLVTVSS VL: DIQMTQSPSSLSASVGDRVTITCRASRGIREYLNWYQQKPGKAPKLLIYYTGSLHSGVPSRFSGSGSGTDFTLTISSLQPEDFATYYCQQYSALPWTFGQGTKVEIK
13 | 2 fold | 1 fold | M4-3/ML2 (E10) IgG (antibody, V domains shown, Human IgG1 format) VH: QVQLQESGPGLVKPSQTLSLTCTVSGGSITSGYYWNWIRQHPGKGLEWIGYITYDGSNNYNPSLKSRVTISRDTSKNQFSLKLSSVTAADTAVYYCADFDYWGQGTLVTVSS VL: DIQMTQSPSSLSASVGDRVTITCRASYGIRGYLNWYQQKPGKAPKLLIYYTSSLHSGVPSRFSGSGSGTDFTLTISSLQPEDFATYHCQQYSKLPWTFGQGTKVEIK
14 | 5 fold | 2.2 fold | M4-3/ML2 (E10/G3) IgG (antibody, V domains shown, Human IgG1 format; also called MCSP ML2(E10-G3)) VH: QVQLQESGPGLVKPSQTLSLTCTVSGGSITSGYYWNWIRQHPGKGLEWIGYITYDGSNNYNPSLKSRVTISRDTSKNQFSLKLSSVTAADTAVYYCADFDYWGQGTLVTVSS VL: DIQMTQSPSSLSASVGDRVTITCRASYGIRGYLNWYQQKPGKAPKLLIYYTSSLHSGVPSRFSGSGSGTDFTLTISSLQPEDFATYHCQQYSALPWTFGQGTKVEIK
15 | 6.7 fold | 3.3 fold | M4-3/ML2(G3) IgG (antibody, V domains shown, Human IgG1 format) VH: QVQLQESGPGLVKPSQTLSLTCTVSGGSITSGYYWNWIRQHPGKGLEWIGYITYDGSNNYNPSLKSRVTISRDTSKNQFSLKLSSVTAADTAVYYCADFDYWGQGTLVTVSS VL: DIQMTQSPSSLSASVGDRVTITCRASQGIRNYLNWYQQKPGKAPKLLIYYTSSLHSGVPSRFSGSGSGTDYTLTISSLQPEDFATYYCQQYSALPWTFGQGTKVEIK

Source: patent US20160130347A1 (Hoffmann-La Roche, published 2016)
